In US12397035B2, “Compositions and methods for treatment” (Celosia Therapeutics Pty Ltd, priority 2019, dated 2025):

Key:
Format in all cases: binding
[1] = molecular target: T1, TDP-43 (Homo sapiens, UniProt Q13148); test: Co-immunoprecipitation of Fx (α-helix 6 of 14-3-3θ) with TDP-43; details: Fx expressed in cells, FIG. 5
T1 construct: expressed in transfected cells; host or cells: 293T HEK cells
Experimental: Immunoprecipitation. Immunoprecipitation was performed as previously described (Ittner et al., 2009, J Biol Chem 284: 20909-20916). Briefly, 293T HEK cells were co-transfected with variants of TDP-43 in pcDNA3.1/V5 and/or 14-3-3 isoforms/variants. Cells were lysed in RIPA buffer. Equal amounts of proteins were incubated overnight with 1 ul of V5 antibody (Life Technologies) and precipitated using magnetic Protein G beads (Life Technologies). Co-immunoprecipitation was further confirmed by Western blotting using myc antibodies.
Western blotting. Western blotting was performed as previously described (Ke et al., 2012, PLoS One 7: e35678). Primary antibodies used for immunoblotting were human TDP-43, c-terminal TDP-43, pan-TDP-43 (Proteintech), 14-3-3θ (Abeam), V5, myc (Life Technologies), phospho-TDP-43 S409/410 (Cosmobio), GAPDH (Merck-Millipore).
Cell culture and staining. All immunorecipitation experiments were carried out in 293T HEK cells. Cells were maintained in DMEM containing 10% fetal bovine serum (FBS) as per standard protocols. SH-SY5Y cells were maintained in DMEM/F-12 containing 10% FBS and used for 14-3-3θ overexpression or knockdown. Stable overexpression and knockdown of 14-3-3θ were achieved through lentiviral transduction. For immunocytochemistry, cells were fixed in 4% PFA and blocked with 3% heat-inactivated goat serum/2% BSA. […]

[2] = molecular target: T2, YES-associated protein (YAP) (Homo sapiens, UniProt P46937); test: Co-immunoprecipitation of Fx with known 14-3-3θ partner YAP; details: data not shown
T2 construct: host or cells: 293T HEK cells
T2 sequence (P46937 whole entry): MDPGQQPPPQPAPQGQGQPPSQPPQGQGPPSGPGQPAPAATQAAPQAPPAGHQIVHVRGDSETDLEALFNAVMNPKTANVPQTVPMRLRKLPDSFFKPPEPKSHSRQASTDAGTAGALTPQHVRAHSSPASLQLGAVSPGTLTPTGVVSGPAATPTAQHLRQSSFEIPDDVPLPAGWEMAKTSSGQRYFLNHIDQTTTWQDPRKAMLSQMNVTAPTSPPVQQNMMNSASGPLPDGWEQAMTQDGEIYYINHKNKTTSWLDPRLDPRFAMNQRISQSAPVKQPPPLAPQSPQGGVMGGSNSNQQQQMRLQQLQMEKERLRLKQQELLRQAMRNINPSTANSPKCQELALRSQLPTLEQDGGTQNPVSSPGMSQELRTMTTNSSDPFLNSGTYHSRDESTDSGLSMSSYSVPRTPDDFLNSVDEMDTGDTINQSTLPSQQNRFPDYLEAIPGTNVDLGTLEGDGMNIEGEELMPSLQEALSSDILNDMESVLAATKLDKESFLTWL

[3] = molecular target: T3, FOXO1 (Homo sapiens, UniProt Q12778); test: Co-immunoprecipitation of Fx with known 14-3-3θ partner FOXO1; details: data not shown
T3 construct: host or cells: 293T HEK cells
T3 sequence (Q12778 whole entry, species assumed): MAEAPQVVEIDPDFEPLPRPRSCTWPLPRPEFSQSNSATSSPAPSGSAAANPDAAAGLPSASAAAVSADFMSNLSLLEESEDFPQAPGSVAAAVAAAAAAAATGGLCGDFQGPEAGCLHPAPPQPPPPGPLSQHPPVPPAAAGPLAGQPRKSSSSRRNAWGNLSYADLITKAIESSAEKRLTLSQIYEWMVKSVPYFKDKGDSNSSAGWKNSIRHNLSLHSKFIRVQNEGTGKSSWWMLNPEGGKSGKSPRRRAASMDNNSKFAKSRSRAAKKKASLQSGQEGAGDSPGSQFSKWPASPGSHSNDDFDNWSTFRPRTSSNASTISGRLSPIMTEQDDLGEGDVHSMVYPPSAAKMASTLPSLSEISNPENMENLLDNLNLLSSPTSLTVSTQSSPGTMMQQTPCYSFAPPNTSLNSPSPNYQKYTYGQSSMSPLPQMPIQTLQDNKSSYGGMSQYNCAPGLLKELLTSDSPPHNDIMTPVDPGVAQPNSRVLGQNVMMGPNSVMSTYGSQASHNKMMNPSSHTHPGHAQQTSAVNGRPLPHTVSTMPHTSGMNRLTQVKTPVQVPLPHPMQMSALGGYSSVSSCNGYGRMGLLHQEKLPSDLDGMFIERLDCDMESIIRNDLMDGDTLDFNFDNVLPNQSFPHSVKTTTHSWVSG

T1 sequence (Q13148 whole entry): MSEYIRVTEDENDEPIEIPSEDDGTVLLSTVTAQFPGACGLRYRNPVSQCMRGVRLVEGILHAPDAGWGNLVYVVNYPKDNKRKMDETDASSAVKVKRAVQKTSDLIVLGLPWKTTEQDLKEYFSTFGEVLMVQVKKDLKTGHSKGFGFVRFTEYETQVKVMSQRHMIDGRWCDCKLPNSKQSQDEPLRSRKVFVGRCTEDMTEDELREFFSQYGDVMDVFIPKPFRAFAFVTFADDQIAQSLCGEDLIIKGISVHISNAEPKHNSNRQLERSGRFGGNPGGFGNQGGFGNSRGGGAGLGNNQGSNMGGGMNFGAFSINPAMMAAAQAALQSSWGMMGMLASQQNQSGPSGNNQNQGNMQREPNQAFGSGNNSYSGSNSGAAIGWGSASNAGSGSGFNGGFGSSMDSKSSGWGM

## Fx: construct including only α-helix 6 (αF) of 14-3-3θ, 30 amino acid sequence SEQ ID NO:2 (amino acids 135-164) (GDDRKQTIDNSQGAYQEAFDISKKEMQPTH; V5 tag in some forms; listed as Homo sapiens)
[1]
  co-precipitation of TDP-43: co-precipitated TDP-43
[2]
  pull down of YES-associated protein (YAP): failed to pull down
[3]
  pull down of FOXO1: failed to pull down
